US20040253631

What was measured:
[1] = target: T1, Lambda integrase (Int) (bacteriophage lambda) (UniProt P03700); assay: cell_activity; details: Xis, IHF
T1 sequence: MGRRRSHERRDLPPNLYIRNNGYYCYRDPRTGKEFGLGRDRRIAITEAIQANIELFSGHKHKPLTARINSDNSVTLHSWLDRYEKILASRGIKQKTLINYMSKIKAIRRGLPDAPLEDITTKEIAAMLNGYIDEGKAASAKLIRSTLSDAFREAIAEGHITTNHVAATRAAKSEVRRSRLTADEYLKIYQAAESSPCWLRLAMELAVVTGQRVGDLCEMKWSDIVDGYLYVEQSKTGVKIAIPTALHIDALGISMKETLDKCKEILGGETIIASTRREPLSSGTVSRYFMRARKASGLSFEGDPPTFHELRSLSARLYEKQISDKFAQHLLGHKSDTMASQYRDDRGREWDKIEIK

[2] = target: Cre recombinase (bacteriophage P1) (UniProt P06956); assay: cell_activity; details: background 140 without Cre; 37 C; 19/24 correct product
Sequence of UniProt P06956 (P06956 whole entry): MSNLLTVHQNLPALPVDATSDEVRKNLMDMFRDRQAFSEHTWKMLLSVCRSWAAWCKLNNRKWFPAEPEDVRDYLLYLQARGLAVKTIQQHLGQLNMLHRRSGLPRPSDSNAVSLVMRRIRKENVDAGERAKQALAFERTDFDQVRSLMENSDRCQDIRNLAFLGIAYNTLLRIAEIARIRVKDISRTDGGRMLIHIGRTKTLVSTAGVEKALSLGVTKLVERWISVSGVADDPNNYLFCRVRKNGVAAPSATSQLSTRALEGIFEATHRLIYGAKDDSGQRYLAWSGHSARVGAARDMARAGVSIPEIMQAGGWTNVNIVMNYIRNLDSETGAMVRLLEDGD

attL wt showed an activity ([1]; partner attR'1 (N5), Cre, background 1) of 4 colonies, an activity ([1]; partner attR'2 (N6), Cre) of 0 colonies and an activity ([1]; partner attR'wt, Cre (loxP for second recombination), background 1) of 147 colonies.
loxP / loxP 511 plasmids was tested, and the activity [2] was 760 colonies.
